# Patent US20030125257
# Target: 19 peptidomimetic BACE inhibitors
protein,measurement,value
"purified full-length human BACE with six C-terminal His residues, expressed in Sf9 insect cells (protein) ETDEEPEEPGRRGSFVEMVDNLRGKSGQGYYVEMTVGSPPQTLNILVDTGSSNFAVGAAPHPFLHRYYQRQLSSTYRDLRKGVYVPYTQGKWEGELGTDLVSIPHGPNVTVRANIAAITESDKFFINGSNWEGILGLAYAEIARPDDSLEPFFDSLVKQTHVPNLFSLQLCGAGFPLNQSEVLASVGGSMIIGGIDHSLYTGSLWYTPIRREWYYEVIIVRVEINGQDLKMDCKEYNYDKSIVDSGTTNLRLPKKVFEAAVKSIKAASSTEKFPDGFWLGEQLVCWQAGTTPWNIFPVISLYLMGEVTNQSFRITILPQQYLRPVEDVATSQDDCYKFAISQSSTGTVMGAVIMEGFYVVFDRARKRIGFAVSACHVHDEFRTAAVEGPFVTLDMEDCGYNIPQTDESTLMTIAYVMAAICALFMLPLCLMVCQWRCLRCLRQQHDDFADDISLLKHHHHHH",FRET assay (proteolytic activity of beta-secretase),test compounds inhibiting the binding of a tagged beta-secretase to beta-secretase also inhibit the proteolytic activity of beta-secretase leading to production of A-beta over a broad range of IC-50 values
